Target: T1, biotinylated HIF1α peptide, Q16665
T1 chain: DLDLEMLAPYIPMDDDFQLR

B1: EGLN3 in vitro translate (protein)
chain: MPLGHIMRLDLEKIALEYIVPCLHEVGFCYLDNFLGEVVGDCVLERVKQLHCTGALRDGQLAGPRAGVSKRHLRGDQITWIGGNEEGCEAISFLLSLIDRLVLYCGSRLGKYYVKERSKAMVACYPGNGTGYVRHVDNPNGDGRCITCIYYLNKNWDAKLHGGILRIFPEGKSFIADVEPIFDRLLFFWSDRRNPHEVQPSYATRYAMTVWYFDAEERAEAKKKFRNLTRKTESALTED
EGLN3 prolyl hydroxylase activity on the HIF1α peptide, read by capture of 35S-labeled pVHL: EGLN3 hydroxylase activity was diminished in the face of increasing amount of succinate

— US20100016434
